Each block holds one molecule with its values, some of them ahead of it.
B1: Lis1^AAA5 (Lis1 M172K, D192K, Y225A, C226D) (natural protein)
chain: VLSQRQRDELNRAIADYLRSNGYEEAYSVFKKEAELDVNEELDKKYAGLLEKKWTSVIRLQKKVMELESKLNEAKEEFTSGGPLGQKRDPKEWIPRPPEKYALSGHRSPVTRVIFHPVFSVMVSASEDATIKVWDYETGDFERTLKGHTDSVQDISFDHSGKLLASCSADKTIKLWDFQGFECIRTMHGHKHNVSSVAIMPNGDHIVSASRDKTIKMWEVQTGADVKTFTGHREWVRMVRPNQDGTLIASCSNDQTVRVWVVATKECKAELREHEHVVECISWAPESSYSSISEATGSETKKSGKPGPFLLSGSRDKTIKMWDVSTGMCLMTLVGHDNWVRGVLFHSGGKFILSCADDKTLRVWDYKNKRCMKTLNAHEHFVTSLDFHKTAPYVVTGSVDQTVKVWECR
B2: Lis1^linker (Lis1 E300K, K303E, S304R, M329A) (natural protein)
chain: VLSQRQRDELNRAIADYLRSNGYEEAYSVFKKEAELDVNEELDKKYAGLLEKKWTSVIRLQKKVMELESKLNEAKEEFTSGGPLGQKRDPKEWIPRPPEKYALSGHRSPVTRVIFHPVFSVMVSASEDATIKVWDYETGDFERTLKGHTDSVQDISFDHSGKLLASCSADMTIKLWDFQGFECIRTMHGHDHNVSSVAIMPNGDHIVSASRDKTIKMWEVQTGYCVKTFTGHREWVRMVRPNQDGTLIASCSNDQTVRVWVVATKECKAELREHEHVVECISWAPESSYSSISEATGSKTKERGKPGPFLLSGSRDKTIKMWDVSTGACLMTLVGHDNWVRGVLFHSGGKFILSCADDKTLRVWDYKNKRCMKTLNAHEHFVTSLDFHKTAPYVVTGSVDQTVKVWECR
B3: Lis1^AAA6 (Lis1 N203K, D205K, Q222A) (natural protein)
chain: VLSQRQRDELNRAIADYLRSNGYEEAYSVFKKEAELDVNEELDKKYAGLLEKKWTSVIRLQKKVMELESKLNEAKEEFTSGGPLGQKRDPKEWIPRPPEKYALSGHRSPVTRVIFHPVFSVMVSASEDATIKVWDYETGDFERTLKGHTDSVQDISFDHSGKLLASCSADMTIKLWDFQGFECIRTMHGHDHNVSSVAIMPKGKHIVSASRDKTIKMWEVATGYCVKTFTGHREWVRMVRPNQDGTLIASCSNDQTVRVWVVATKECKAELREHEHVVECISWAPESSYSSISEATGSETKKSGKPGPFLLSGSRDKTIKMWDVSTGMCLMTLVGHDNWVRGVLFHSGGKFILSCADDKTLRVWDYKNKRCMKTLNAHEHFVTSLDFHKTAPYVVTGSVDQTVKVWECR

Legend:
[1] = target: full-length human dynein (cytoplasmic dynein-1), wild type (human) (UniProt Q14204); assay: mass photometry
[2] = target: full-length human dynein (cytoplasmic dynein-1), wild type (human) (UniProt Q14204); assay: cryo-EM structure
[3] = target: the molecule itself; assay: mass photometry
[4] = target: B2; assay: mass photometry
[5] = target: T1, human Lis1, wild type (human, UniProt P43034 2-410); assay: mass photometry
T1 sequence: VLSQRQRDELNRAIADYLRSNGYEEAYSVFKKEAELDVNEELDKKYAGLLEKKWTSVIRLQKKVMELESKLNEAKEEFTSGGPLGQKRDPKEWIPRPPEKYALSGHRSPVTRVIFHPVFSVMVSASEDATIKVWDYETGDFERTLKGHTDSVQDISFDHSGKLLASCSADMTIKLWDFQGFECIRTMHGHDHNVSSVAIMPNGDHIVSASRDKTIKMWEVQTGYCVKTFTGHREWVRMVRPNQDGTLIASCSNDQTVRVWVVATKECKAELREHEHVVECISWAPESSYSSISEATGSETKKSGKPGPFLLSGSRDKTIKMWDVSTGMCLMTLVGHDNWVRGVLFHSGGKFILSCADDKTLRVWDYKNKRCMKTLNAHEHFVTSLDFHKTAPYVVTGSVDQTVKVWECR

[6] = target: B3; assay: mass photometry
[7] = target: B1; assay: mass photometry

percent of 1:1 dynein:Lis1 complex [1]: 37% | percent of complex formation [1]: 69% | stoichiometry N (Lis1 dimer per dynein) [1]: 1 | stoichiometry N (Lis1 per dynein) [1]: 1 | percent of autoinhibited dynein particles in Phi^L-Lis1 [2]: 57.3% | stoichiometry N (Lis1 dimer per dynein) [2]: 1
Molecule: human Lis1, wild type (from UniProt P43034 2-410) (natural protein)

Molecule: B1
stoichiometry N [3]: 2

Molecule: B2
stoichiometry N [3]: 2

Molecule: B3
stoichiometry N [3]: 2

binding result [4]: binds | binding result [5]: binds | binding result [6]: binds | binding result [7]: binds
B4: human Nde1 (N-terminal residues 1-190) (domain or fragment)
chain: MEDSGKTFSSEEEEANYWKDLAMTYKQRAENTQEELREFQEGSREYEAELETQLQQIETRNRDLLSENNRLRMELETIKEKFEVQHSEGYRQISALEDDLAQTKAIKDQLQKYIRELEQANDDLERAKRATIMSLEDFEQRLNQAIERNAFLESELDEKENLLESVQRLKDEARDLRQELAVQQKQEKPR
